Measured values published in article PMC12630360.

How the values were obtained:
[1] = molecular target: HLA class I heavy chains of HeLa/US6 cells (the H of HLA-Hβ in the BFA/temperature upshift decays) (human (endogenous in HeLa)); test: flow cytometry on cells; BFA/temperature upshift decays: cells overnight at 25 °C, 10 μg/ml brefeldin A, then 37 °C for the indicated times; surface Hβ and fH followed with conformation-specific mAbs; half-times fitted (by hand or Solver) with a first-order in silico model
[2] = molecular target: H-2L^d heavy chain (free heavy chain, L^d-fH, when without β2m and peptide) (mouse); test: as above
Chain of H-2L^d heavy chain (free heavy chain, L^d-fH, when without β2m and peptide) (mouse) (P01897 25-362): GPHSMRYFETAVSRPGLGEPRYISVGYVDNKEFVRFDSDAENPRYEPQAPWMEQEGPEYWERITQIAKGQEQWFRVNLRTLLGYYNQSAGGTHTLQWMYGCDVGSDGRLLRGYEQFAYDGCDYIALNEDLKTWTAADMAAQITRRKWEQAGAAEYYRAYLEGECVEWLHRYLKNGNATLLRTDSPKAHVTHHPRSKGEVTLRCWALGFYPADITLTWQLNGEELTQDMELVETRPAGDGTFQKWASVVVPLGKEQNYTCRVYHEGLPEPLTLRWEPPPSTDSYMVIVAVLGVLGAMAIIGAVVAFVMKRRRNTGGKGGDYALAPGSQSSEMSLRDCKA

| Substance | half-time of β2m dissociation (r1) at 37 °C [1] | half-time of β2m dissociation (r1) at 37 °C [2] |
| --- | --- | --- |
| beta-2 microglobulin of HeLa/US6 cells (from UniProt P61769 21-119) (natural protein) | 10 min |  |
| beta-2 microglobulin of STF1 cells (from UniProt P61769 21-119) (natural protein) |  | 3 min |
